What was measured:
[1] = molecular target: HSP70 (human HSP70; the antigen of the binning, humanization and variant binding assays) (human) (UniProt P0DMV8); assay: BLI, anti-human Fc capture, antigen 100 nM
[2] = molecular target: HSP70-GFP (full-length HSP70 fused to GFP) (human) (UniProt P0DMV8); assay: cell-based or functional assay
Sequence of HSP70-GFP (full-length HSP70 fused to GFP) (human) (P0DMV8 whole entry, the tested form may be a part): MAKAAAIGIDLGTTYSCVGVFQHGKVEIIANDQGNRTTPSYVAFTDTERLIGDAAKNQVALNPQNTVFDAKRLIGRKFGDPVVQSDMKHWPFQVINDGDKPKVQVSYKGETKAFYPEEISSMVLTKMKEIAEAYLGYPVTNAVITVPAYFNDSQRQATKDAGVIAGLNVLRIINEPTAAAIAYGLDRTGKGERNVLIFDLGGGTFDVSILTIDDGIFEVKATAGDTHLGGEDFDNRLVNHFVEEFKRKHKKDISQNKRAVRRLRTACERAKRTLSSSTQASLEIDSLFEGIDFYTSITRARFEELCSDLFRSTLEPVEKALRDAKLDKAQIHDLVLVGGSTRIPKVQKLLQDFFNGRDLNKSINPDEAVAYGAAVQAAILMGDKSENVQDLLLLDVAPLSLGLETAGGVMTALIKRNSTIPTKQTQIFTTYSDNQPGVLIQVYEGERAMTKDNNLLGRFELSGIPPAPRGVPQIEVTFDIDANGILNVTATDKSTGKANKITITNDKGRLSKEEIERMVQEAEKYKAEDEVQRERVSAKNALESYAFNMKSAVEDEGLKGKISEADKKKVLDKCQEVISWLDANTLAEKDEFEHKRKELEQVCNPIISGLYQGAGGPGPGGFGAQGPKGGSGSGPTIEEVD

Sequence of HSP70 (human HSP70; the antigen of the binning, humanization and variant binding assays) (human) (P0DMV8 whole entry, change not shown, the tested form may be a part): as the sequence (P0DMV8 whole entry, the tested form may be a part) above

B1: h77A-1.32 (antibody, V domains shown)
VH: QIQLVQSGAEVKKPGASVKVSCKASGYTFTNYGMNWVRQAPGQGLEWMGWINTYTGEPRYADDFKGRFTFTTDTSTSTAYMELRSLRSDDTAVYFCARYDHDMDYWGQGTLVTVSS
VL: EIVLTQSPDSLAVSLGERATINCKSSQSLLNSGTRKNYLAWYQQKAGQSPKLLIYWTSTRESGVPDRFSGSGSGTDFTLTIDSLQAEDVAVYYCKQSYTLYTFGGGTKVEIK
- % Diss [1]: -80.5%
- X = 610 [1]: 0.0256 nM
- X = 1495 [1]: 0.0462 nM

B2: murine 77A in a murine IgG2a format (antibody, V domains shown)
VH: QIQLVQSGPELKKPGETVKISCKASGYTFTNYGMNWVKQAPGKGLKWMGWINTYTGEPTYADDFKGRFAFSLETSATTAYLQINNLKNEDTATYFCARYDHAMDYWGQGTSVTVSS
VL: DIVMSQSPSSLAVSAGEKVTMSCKSSQSLLNSGTRKNYLAWYQQKPGQSPKLLIYWTSTRESGVPDRFTGSGSGTDFTLTINSVQAEDLAVYYCKQSYTLYTFGGGTKLEIK
- % live cells GFP positive, DC3.2 cells [2]: 78.3%
- % live cells GFP positive, MH-S cells [2]: 66%

B3: murine 77A in a murine IgG2b format (antibody, V domains shown)
VH: QIQLVQSGPELKKPGETVKISCKASGYTFTNYGMNWVKQAPGKGLKWMGWINTYTGEPTYADDFKGRFAFSLETSATTAYLQINNLKNEDTATYFCARYDHAMDYWGQGTSVTVSS
VL: DIVMSQSPSSLAVSAGEKVTMSCKSSQSLLNSGTRKNYLAWYQQKPGQSPKLLIYWTSTRESGVPDRFTGSGSGTDFTLTINSVQAEDLAVYYCKQSYTLYTFGGGTKLEIK
- % GFP positivity, DC3.2 cells [2]: 4.85%
- % GFP positivity, MH-S cells [2]: 16%

From patent US20250084155A1
